The target of assay [1] is separate RPA2 WH-domain (pTYB12-WH), recombinant. As to the kind of experiment: MST; 100 nM target labelled on cysteines (RED-…), concentration gradient of unlabelled ligand; Monolith NT.115, premium coated capillaries, 40% MST power; 50 mM Tris-HCl pH 7.5, 100 mM NaCl, 1 mM DTT, 0.05% Tween-20, 0.5 mg/ml BSA; KD from at least three runs.
In assay [2] the target is mouse UNG2 wild type, recombinant (mUNG2-pET28a) (mouse) (UniProt P97931). The description is as above.

As for “mouse UNG2 wild type, recombinant (mUNG2-pET28a) (from UniProt P97931-1 1-306) (domain or fragment)”, the dissociation constant Kd in assay [1] came to 860 nM. For “separate RPA2 WH-domain (pTYB12-WH), recombinant”, the equilibrium dissociation constant (Kd) in assay [2] amounted to 1260 nM.

The Kd is the free concentration of one partner at which half of the binding sites on the other are occupied at equilibrium, for simple one-to-one binding.
